Data as given in patent publication US20200377613A1.

B1: mAb 2C2E7 (antibody, IgG2b, V domains shown)
VH: QIQLVQSGPELKKPGETVKISCKASGYTFTTYGMSWVKQAPGRGLKWMGWINPYSGVPTYAVDFKGRFAFSLETSASTAYLQINNLKNEDTATYFCARGGRRGDFGYWGQGTTLTVSS
VL: QIGLTQSPAIMSASPGEKVTMTCSASSSISYMHWYQQKPGTSPKTWIYDTSKLASGVPARFSGSGSGTSYSLTISSMEAEDAATYYCHQRSSHHTFGGGTKLEIK
B2: mAb 30H3D2 (antibody, IgG1, V domains shown)
VH: EVQLVESGGDLVKPGGSLKLSCAASGFTFSSYGMSWVRLTPDKRLEWVATISSGGSHTYYPDSVRGRFTISRDNAKNTLYLQMSSLKSEDTAMYYCARHPIYYYISSYAMDYWGQGTSVTVSS
VL: DVVMTQTPLSLPVSLGDQASISCRSSQSLVHSTGNTYLHWYLQKPGQSPKLLIYKVSNRFSGVPDRFGGSGSGTDFTLKISRVEAEDLGVYFCSQSTHVPPTFGGGTKLEIK

Molecular target: survivin peptide coating antigen, not stated which (SEQ ID NO:4 or SEQ ID NO:27)
Assay: indirect ELISA; coating peptide not stated

Row | Binder | titer (highest dilution with signal to blank ratio >2:1) (dilution (1:x))
1 | B1 | 512000
2 | B2 | 512000
